Legend:
[1] = biological target: HsdM subunit encoded by the chromosome of the IL1403 strain (L. lactis ssp lactis (strain IL1403)); test: cell-based or functional assay
[2] = biological target: HsdR subunit encoded by the chromosome of the IL1403 strain (L. lactis ssp lactis (strain IL1403)); test: cell-based or functional assay
Chain of HsdR subunit encoded by the chromosome of the IL1403 strain (L. lactis ssp lactis (strain IL1403)) (chain, as listed by the source limits assumed): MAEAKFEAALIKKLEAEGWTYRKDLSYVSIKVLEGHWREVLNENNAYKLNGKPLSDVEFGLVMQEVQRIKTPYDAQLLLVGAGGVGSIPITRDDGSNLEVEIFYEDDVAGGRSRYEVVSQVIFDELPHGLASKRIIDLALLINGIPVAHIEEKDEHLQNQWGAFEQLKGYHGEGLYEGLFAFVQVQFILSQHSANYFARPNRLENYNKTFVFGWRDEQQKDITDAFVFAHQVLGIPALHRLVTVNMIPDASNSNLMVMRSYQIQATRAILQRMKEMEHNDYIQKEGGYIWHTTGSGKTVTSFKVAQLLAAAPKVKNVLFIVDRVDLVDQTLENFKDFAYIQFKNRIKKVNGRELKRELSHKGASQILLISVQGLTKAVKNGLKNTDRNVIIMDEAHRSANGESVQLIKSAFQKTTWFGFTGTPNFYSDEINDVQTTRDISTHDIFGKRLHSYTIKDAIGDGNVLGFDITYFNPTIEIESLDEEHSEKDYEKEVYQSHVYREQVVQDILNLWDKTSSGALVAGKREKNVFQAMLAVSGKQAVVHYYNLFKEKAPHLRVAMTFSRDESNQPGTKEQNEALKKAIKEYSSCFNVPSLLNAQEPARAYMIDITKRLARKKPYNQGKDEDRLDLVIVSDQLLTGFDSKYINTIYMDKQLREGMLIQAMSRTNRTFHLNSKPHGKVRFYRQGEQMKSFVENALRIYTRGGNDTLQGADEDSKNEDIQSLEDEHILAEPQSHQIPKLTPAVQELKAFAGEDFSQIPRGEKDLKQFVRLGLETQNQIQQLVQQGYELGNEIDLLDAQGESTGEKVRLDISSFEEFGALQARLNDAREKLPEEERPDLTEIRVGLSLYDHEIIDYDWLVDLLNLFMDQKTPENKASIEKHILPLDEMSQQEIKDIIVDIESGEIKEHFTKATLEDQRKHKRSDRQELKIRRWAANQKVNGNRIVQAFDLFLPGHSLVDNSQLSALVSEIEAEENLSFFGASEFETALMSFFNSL

Chain of HsdM subunit encoded by the chromosome of the IL1403 strain (L. lactis ssp lactis (strain IL1403)) (chain, as listed by the source limits assumed): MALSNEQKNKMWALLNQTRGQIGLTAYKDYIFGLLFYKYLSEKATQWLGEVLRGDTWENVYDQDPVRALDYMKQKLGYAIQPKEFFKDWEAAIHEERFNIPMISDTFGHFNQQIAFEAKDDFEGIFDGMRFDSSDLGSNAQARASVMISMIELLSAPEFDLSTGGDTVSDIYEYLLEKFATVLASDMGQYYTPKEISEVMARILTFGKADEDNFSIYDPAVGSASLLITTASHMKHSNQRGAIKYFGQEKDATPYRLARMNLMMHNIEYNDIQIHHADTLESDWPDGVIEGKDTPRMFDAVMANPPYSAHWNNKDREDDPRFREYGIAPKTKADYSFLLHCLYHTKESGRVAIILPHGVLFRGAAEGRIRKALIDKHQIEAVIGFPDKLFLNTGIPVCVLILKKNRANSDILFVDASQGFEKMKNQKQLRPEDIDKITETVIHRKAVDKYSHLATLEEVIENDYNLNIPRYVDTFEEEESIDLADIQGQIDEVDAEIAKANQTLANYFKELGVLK

Row | EOP (efficacy of propagation) of bIL67 phage on IL1403 transformed with pIL7, against IL1403 without plasmids [1] | EOP (efficacy of propagation) of bIL67 phage on IL1403 transformed with pIL7, against IL1403 without plasmids [2] | EOP (efficacy of propagation) of bIL67 phage on IL1403 transformed with pIL261, against IL1403 without plasmids [1] | EOP (efficacy of propagation) of bIL67 phage on IL1403 transformed with pIL261, against IL1403 without plasmids [2] | Substance
1 | 0.006 | 0.006 |  |  | HsdS subunit encoded by the pIL7 plasmid
2 |  |  | 6e-07 | 6e-07 | HsdS subunit encoded by the pIL261 plasmid (orf2 of the 3.7 kb EcoRI insert from pIL103)
